Drawing on article doi:10.1101/2023.12.03.569830 (bioRxiv, 2023), this text covers Kd for one molecule.

This test concerns the target T1, surface-exposed domain of TraN (TraN^surf), N-terminal hexa-histidine tag (Salmonella enterica serovar Typhimurium …).
T1 chain: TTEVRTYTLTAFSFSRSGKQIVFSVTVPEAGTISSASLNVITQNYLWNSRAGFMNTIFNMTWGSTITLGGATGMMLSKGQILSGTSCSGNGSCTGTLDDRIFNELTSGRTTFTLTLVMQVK
In words: ITC. (ITC needs no label: the signal is the heat of the interaction.)

The Kd is the equilibrium constant for the complex coming apart. A higher Kd goes with weaker binding.

B1: Nb^traN (TraN-specific nanobody), C-terminal hexa-histidine tag (VHH)
VHH: QVQLQESGGGLVQAGGSLRLSCAASGTIFDGVDMGWYRQAPGKEREFVAGITAGSSTYYADSVKGRFTISRDNAKNTVYLQMNSLKPEDTAVYYCAAYPLDEIGSHDPHSYWGQGTQVTVSS
B1 displayed a Kd of 4.45 µM.
